Patent US6723321B2 (priority 1998, dated 2004)
Where two headings read alike, the source gives them in different places.

How the values were obtained:
RhlI [1] = molecular target: T1, RhlI (Pseudomonas aeruginosa, UniProt P54291); experiment: radioactive in vitro assay for RhlI activity (C14-labeled SAM); format: biochemical; conditions: for Activity in radioactive assay: potential acyl group substrates, 61 μM SAM as co-substrate
RhlI [2] = molecular target: T1, RhlI; format: biochemical
RhlI [3] = molecular target: T1, RhlI; format: biochemical; conditions: acyl substrate varied, SAM held at 95 μM; for Km: read-out: Apparent Km
[4] = test system: CCCC(=O)SCCNC(=O)CCNC(=O)[C@H](O)C(C)(C)COP(=O)(O)OP(=O)(O)OC[C@H]1O[C@@H](n2cnc3c(N)ncnc32)[C@H](O)[C@@H]1OP(=O)(O)O; experiment: purified protein, by the assay type; conditions: other: acyl substrate varied, SAM held at 95 μM
RhlI [5] = molecular target: T1, RhlI; format: biochemical; conditions: 61 μM SAM as co-substrate; tested in the R. solanacearum bioassay
[6] = potential acyl group substrates, 61 μM SAM as co-substrate

T1 sequence (P54291 whole entry, looked up): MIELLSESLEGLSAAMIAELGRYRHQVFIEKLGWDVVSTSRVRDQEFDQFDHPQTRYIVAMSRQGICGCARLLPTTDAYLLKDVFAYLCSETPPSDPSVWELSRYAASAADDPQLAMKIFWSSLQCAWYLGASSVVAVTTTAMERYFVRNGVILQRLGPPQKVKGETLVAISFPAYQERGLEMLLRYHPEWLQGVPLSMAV

| Molecule | Activity in butyryl HSL bioassay (RhlI [2]; [6]) | Activity in radioactive assay (RhlI [1]) | Apparent Vmax (RhlI [3]) | Km (RhlI [3]) | other results |
| --- | --- | --- | --- | --- | --- |
| NC(=O)C1=CN([C@@H]2O[C@H](COP(=O)(O)OP(=O)(O)OC[C@H]3O[C@@H](n4cnc5c(N)ncnc54)[C@H](OP(=O)(O)O)[C@@H]3O)[C@@H](O)[C@H]2O)C=CC1 [NADPH] | – | – | – | – | effect on the reaction rate (RhlI [1]; included with butyryl-ACP and SAM): slightly increase |
| CCCC(=O)SCCNC(=O)CCNC(=O)[C@H](O)C(C)(C)COP(=O)(O)OP(=O)(O)OC[C@H]1O[C@@H](n2cnc3c(N)ncnc32)[C@H](O)[C@@H]1OP(=O)(O)O [butyryl-CoA] | 38 nmoles butyryl HSL formed min^−1 mg^−1 | 82 nmoles butyryl HSL formed min^−1 mg^−1 | 2.1 mol of butyryl HSL min^−1 mol^−1 of RhlI | – | – |
| CCCCCC(=O)SCCNC(=O)CCNC(=O)[C@H](O)C(C)(C)COP(=O)(O)OP(=O)(O)OC[C@H]1O[C@@H](n2cnc3c(N)ncnc32)[C@H](O)[C@@H]1OP(=O)(O)O [hexanoyl-CoA] | – | 4 nmoles butyryl HSL formed min^−1 mg^−1 | – | – | – |
| N[C@@H](CCS)C(=O)O [homocysteine] | – | – | – | – | activity, fold less when compared to reactions containing SAM (RhlI [2]; butyryl HSL bioassay, amino acid substrate): at least 150 fold; Activity in butyryl HSL bioassay (RhlI [2]; potential amino acid substrates, 39 μM butyryl ACP as co-substrate): <2 nmoles butyryl HSL formed min^−1 mg^−1 |
| RhlI (Pseudomonas aeruginosa PAO1) | – | – | – | – | Km [4]: 230 µM |
| butyryl-ACP: acylated acyl carrier protein with attached butyryl group; acyl substrate of RhlI | 532 nmoles butyryl HSL formed min^−1 mg^−1 | 650 nmoles butyryl HSL formed min^−1 mg^−1 | – | 6 µM | – |
| hexanoyl-ACP: acylated acyl carrier protein with attached hexanoyl group | 91 nmoles butyryl HSL formed min^−1 mg^−1 | 263 nmoles butyryl HSL formed min^−1 mg^−1 | 9.6 mol of butyryl HSL min^−1 mol^−1 of RhlI | 8 µM | – |
| octanoyl-ACP: acylated acyl carrier protein with attached octanoyl group | – | 28 nmoles butyryl HSL formed min^−1 mg^−1 | 1.8 mol of butyryl HSL min^−1 mol^−1 of RhlI | 43 µM | Activity in radioactive assay (RhlI [1]; listed as Octanoyl-ACP): demonstrated to be a substrate of RhlI; Activity in bioassay (R. solanacearum bioassay) (RhlI [5]): not detected as a substrate |
